# Laboratory results: patent US20260167728A1 (published 2026)
# How the values were obtained:
# human CD3 [1] = biological target: T1, human CD3 (human, UniProt P07766 23-126); experiment: method not stated
# human EGFR [2] = biological target: T2, human EGFR (human, UniProt P00533 25-645, limits assumed); experiment: BLI, room temperature
# T2 construct: on HT-29 cells in the cytotoxicity assay; also called epidermal growth factor receptor
# Method: Each construct was expressed in small-scale and purified. Thermal stability was determined by Differential Scanning Fluorimetry. Melting temperature (Tₘ) determined by Differential Scanning Fluorimetry experiments described herein were performed either in duplicate or triplicate using GloMelt™ dye and QuantStudio5™. GloMelt™ dye undergoes fluorescence enhancement upon binding to hydrophobic regions of denatured proteins. Therefore, the dye can be used to detect protein unfolding or measure thermal stability. GloMelt™ dye is optimized for detection in the SYBR® Green channel of qPCR instruments. The Differential Scanning Fluorimetry experiments were performed in 96-well plates with 10 μg protein/reaction (equal to 0.5 mg/mL final protein concentration), reaction buffer, and GloMelt™ 10× dye according to manufacturer's instructions. Fluorescence of 96-well plates was read and melt curve plots were generated in the QuantStudio5™ qPCR system. Binding affinity was analyzed with bio-layer interferometry at room temperature with human EGFR as the antigen.
# human EGFR [3] = biological target: T2, human EGFR; experiment: SPR Biacore 37 C
# cynomolgus monkey EGFR = biological target: T3, cynomolgus monkey EGFR (cynomolgus monkey, UniProt A0A2K5WK39 25-645); experiment: SPR Biacore 37 C
# T3 construct: also called Cyno EGFR
# human CD3 [4] = biological target: T1, human CD3; experiment: SPR Biacore 37 C
# cynomolgus monkey CD3 = biological target: T4, cynomolgus monkey CD3 (cynomolgus monkey, UniProt Q95LI5 22-117); experiment: SPR Biacore 37 C
# T4 construct: also called Cyno CD3
# T4 sequence: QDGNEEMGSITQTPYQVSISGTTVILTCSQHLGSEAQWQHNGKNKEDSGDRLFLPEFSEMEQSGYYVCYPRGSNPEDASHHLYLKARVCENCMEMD
# T1 sequence (P07766 23-126 limits assumed): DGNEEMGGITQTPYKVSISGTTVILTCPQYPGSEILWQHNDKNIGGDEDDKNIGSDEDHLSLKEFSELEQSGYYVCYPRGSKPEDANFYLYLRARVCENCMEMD
binder,measurement,setting,value
"AC2909 (EGFR.61/CD3.23 paTCE) (bispecific antibody, EGFR library format (remarks)) scFv 1: EIVLTQSPGTLSLSPGERATLSCQASQDISNYLNWYQQKPGQAPRLLIYDASNLETGIPDRFSGSGSGTDFTLTISRLEPEDFAVYYCQHFDHLPLAFGQGTKVEIKGATPPETGAETESPGETTGGSAESEPPGEGQVQLQESGPGLVKPSETLSLTCTVSGGSVSSGDYYWTWIRQPPGKGLEWIGHIYYSGNTNYNPSLKSRVTISVDTSKNQFSLKLSSVTAADTAVYYCARDRVTGAFDIWGQGTLVTVSS scFv 2: ELVVTQEPSLTVSPGGTVTLTCRSSNGAVTSSNYANWVQQKPGQAPRGLIGGTNKRAPGTPARFSGSLLGGKAALTLSGVQPEDEAVYYCALWYPNLWVFGGGTKLTVLGATPPETGAETESPGETTGGSAESEPPGEGEVQLLESGGGIVQPGGSLKLSCAASGFTFNTYAMNWVRQAPGKGLEWVARIRSKYNNYATYYADSVKDRFTISRDDSKNTVYLQMNNLKTEDTAVYYCVRHENFGNSYVSWFAHWGQGTLVTVSS",Kd,human CD3 [1],~203 nM
same,Kd,human EGFR [2],2.4 nM
"AC2921 (EGFR.73/CD3.23 paTCE) (bispecific antibody, EGFR library format (remarks)) scFv 1: EIVLTQSPATLSLSPGERATLSCQASQDISNYLNWYQQKPGQAPRLLIYDASNLETGIPARFSGSGSGTDFTLTISSLEPEDFAVYYCQHFDHLPLAFGQGTKVEIKGATPPETGAETESPGETTGGSAESEPPGEGQVQLQESGPGLVKPSETLSLTCTVSGGSVSSGDYYWTWIRQPPGKGLEWIGHIYYSGNTNYNPSLKSRVTISVDTSKNQFSLKLSSVTAADTAVYYCARDRVTGAFDIWGQGTLVTVSS scFv 2: ELVVTQEPSLTVSPGGTVTLTCRSSNGAVTSSNYANWVQQKPGQAPRGLIGGTNKRAPGTPARFSGSLLGGKAALTLSGVQPEDEAVYYCALWYPNLWVFGGGTKLTVLGATPPETGAETESPGETTGGSAESEPPGEGEVQLLESGGGIVQPGGSLKLSCAASGFTFNTYAMNWVRQAPGKGLEWVARIRSKYNNYATYYADSVKDRFTISRDDSKNTVYLQMNNLKTEDTAVYYCVRHENFGNSYVSWFAHWGQGTLVTVSS",Kd,human CD3 [1],~203 nM
same,Kd,human EGFR [2],2.45 nM
"AC2897 (EGFR.49/CD3.23 paTCE) (bispecific antibody, EGFR library format (remarks)) scFv 1: DIQMTQSPSSLSASVGDRVTITCQASQDISNYLNWYQQKPGKAPKLLIYDASNLETGVPSRFSGSGSGTDFTLTISSLQPEDFATYYCQHFDHLPLAFGQGTKVEIKGATPPETGAETESPGETTGGSAESEPPGEGQVQLQESGPGLVKPSETLSLTCTVSGGSVSSGDYYWTWIRQPPGKGLEWIGHIYYSGNTNYNPSLKSRVTISVDTSKNQFSLKLSSVTAADTAVYYCARDRVTGAFDIWGQGTLVTVSS scFv 2: ELVVTQEPSLTVSPGGTVTLTCRSSNGAVTSSNYANWVQQKPGQAPRGLIGGTNKRAPGTPARFSGSLLGGKAALTLSGVQPEDEAVYYCALWYPNLWVFGGGTKLTVLGATPPETGAETESPGETTGGSAESEPPGEGEVQLLESGGGIVQPGGSLKLSCAASGFTFNTYAMNWVRQAPGKGLEWVARIRSKYNNYATYYADSVKDRFTISRDDSKNTVYLQMNNLKTEDTAVYYCVRHENFGNSYVSWFAHWGQGTLVTVSS",Kd,human CD3 [1],~203 nM
same,Kd,human EGFR [2],7.2 nM
"AMX-525 (bispecific antibody, Fully masked paTCE; also called AC4230; EGFR.37/CD3.318 paTCE) ASSATPESGPGTSTEPSEGSAPGTSESATPESGPGSGPGTSESATPGTSESATPESGPGSEPATSGSETPGTSESATPESGPGTSTEPSEGSAPGSPAGSPTSTEEGTSESATPESGPGSEPATSGSETPGTSESATPESGPGSPAGSPTSTEEGSPAGSPTSTEEGTSTEPSEGSAPGTSESATPESGPGTSESATPESGPGTSESATPESGPGSEPATSGSETPGSEPATSGSETPGSPAGSPTSTEEGTSTEPSEGSAPGTSTEPSEGSAPGSEPATSGSETPGTSESATPEAGRSASHTPAGLTGPGTSESATPESDIQMTQSPSSLSASVGDRVTITCQASQDISNYLNWYQQKPGKAPKLLIYDASNLETGVPSRFSGSGSGTDFTFTISSLQPEDIATYYCQHFDHLPLAFGQGTKVEIKSESATPESGPGTSPGATPESGPGTSESATPQVQLQESGPGLVKPSETLSLTCTVSGGSVSSGDYYWTWIRQPPGKGLEWIGHIYYSGNTNYNPSLKSRVTISVDTSKNQFSLKLSSVTAADTAVYYCARDRVTGAFDIWGQGTLVTVSSGGGGSELVVTQEPSLTVSPGGTVTLTCRSSNGAVTSSNYANWVQQKPGQAPRGLIGGTNKRAPGTPARFSGSLLEGKAALTLSGVQPEDEAVYYCALWYPNLWVFGGGTKLTVLSESATPESGPGTSPGATPESGPGTSESATPEVQLVESGGGIVQPGGSLRLSCAASGFTFSTYAMNWVRQAPGKGLEWVGRIRTKRNDYATYYADSVKGRFTISRDDSKNTLYLQMNSLKTEDTAVYYCVRHENFGNSYVSWFAHWGQGTLVTVSSGTATPESGPGEAGRSASHTPAGLTGPATPESGPGTSESATPESGPGSPAGSPTSTEEGTSESATPESGPGSEPATSGSETPGTSESATPESGPGTSTEPSEGSAPGTSTEPSEGSAPGTSTEPSEGSAPGTSTEPSEGSAPGTSTEPSEGSAPGTSTEPSEGSAPGSPAGSPTSTEEGTSTEPSEGSAPGTSESATPESGPGSEPATSGSETPGTSESATPESGPGSEPATSGSETPGTSESATPESGPGTSTEPSEGSAPGTSESATPESGPGSPAGSPTSTEEGSPAGSPTSTEEGSPAGSPTSTEEGTSESATPESGPGTSTEPSEGSAPGTSESATPESGPGSEPATSGSETPGTSESATPESGPGSEPATSGSETPGTSESATPESGPGTSTEPSEGSAPGSPAGSPTSTEEGTSESATPESGPGSEPATSGSETPGTSESATPESGPGSPAGSPTSTEEGSPAGSPTSTEEGTSTEPSEGSAPGTSESATPESGPGTSESATPESGPGTSPSATPESGPGSEPATSGSETPGSEPATSGSETPGSPAGSPTSTEEGTSTEPSEGSAPGTSTEPSEGSAPGSEPATSGSETPGTSESAGEPEA",Kd,human EGFR [3],0.736 nM
same,koff,human EGFR [3],0.00077 s⁻¹
same,kon,human EGFR [3],1.04e+06 M⁻¹ s⁻¹
same,Kd,cynomolgus monkey EGFR,1.05 nM
same,koff,cynomolgus monkey EGFR,0.001 s⁻¹
same,kon,cynomolgus monkey EGFR,910000 M⁻¹ s⁻¹
same,Kd,human CD3 [4],57 nM
same,koff,human CD3 [4],0.18 s⁻¹
same,kon,human CD3 [4],3.1e+06 M⁻¹ s⁻¹
same,Kd,cynomolgus monkey CD3,167 nM
same,koff,cynomolgus monkey CD3,0.18 s⁻¹
same,kon,cynomolgus monkey CD3,1.1e+06 M⁻¹ s⁻¹
"AMX-525 (1x-N) (bispecific antibody, Singly masked metabolite; that the N-terminal mask is the one kept is read from the label only; not shown: remnant of cleaved RSR-3213) ASSATPESGPGTSTEPSEGSAPGTSESATPESGPGSGPGTSESATPGTSESATPESGPGSEPATSGSETPGTSESATPESGPGTSTEPSEGSAPGSPAGSPTSTEEGTSESATPESGPGSEPATSGSETPGTSESATPESGPGSPAGSPTSTEEGSPAGSPTSTEEGTSTEPSEGSAPGTSESATPESGPGTSESATPESGPGTSESATPESGPGSEPATSGSETPGSEPATSGSETPGSPAGSPTSTEEGTSTEPSEGSAPGTSTEPSEGSAPGSEPATSGSETPGTSESATPEAGRSASHTPAGLTGPGTSESATPESDIQMTQSPSSLSASVGDRVTITCQASQDISNYLNWYQQKPGKAPKLLIYDASNLETGVPSRFSGSGSGTDFTFTISSLQPEDIATYYCQHFDHLPLAFGQGTKVEIKSESATPESGPGTSPGATPESGPGTSESATPQVQLQESGPGLVKPSETLSLTCTVSGGSVSSGDYYWTWIRQPPGKGLEWIGHIYYSGNTNYNPSLKSRVTISVDTSKNQFSLKLSSVTAADTAVYYCARDRVTGAFDIWGQGTLVTVSSGGGGSELVVTQEPSLTVSPGGTVTLTCRSSNGAVTSSNYANWVQQKPGQAPRGLIGGTNKRAPGTPARFSGSLLEGKAALTLSGVQPEDEAVYYCALWYPNLWVFGGGTKLTVLSESATPESGPGTSPGATPESGPGTSESATPEVQLVESGGGIVQPGGSLRLSCAASGFTFSTYAMNWVRQAPGKGLEWVGRIRTKRNDYATYYADSVKGRFTISRDDSKNTLYLQMNSLKTEDTAVYYCVRHENFGNSYVSWFAHWGQGTLVTVSSGTATPESGPG",Kd,cynomolgus monkey EGFR,0.25 nM
same,Kd,human CD3 [4],36 nM
same,Kd,cynomolgus monkey CD3,47 nM
"AMX-525 (uTCE) (bispecific antibody, Fully unmasked metabolite; also called unmasked AMX-525; not shown: remnant of cleaved RSR-3213) GTSESATPESDIQMTQSPSSLSASVGDRVTITCQASQDISNYLNWYQQKPGKAPKLLIYDASNLETGVPSRFSGSGSGTDFTFTISSLQPEDIATYYCQHFDHLPLAFGQGTKVEIKSESATPESGPGTSPGATPESGPGTSESATPQVQLQESGPGLVKPSETLSLTCTVSGGSVSSGDYYWTWIRQPPGKGLEWIGHIYYSGNTNYNPSLKSRVTISVDTSKNQFSLKLSSVTAADTAVYYCARDRVTGAFDIWGQGTLVTVSSGGGGSELVVTQEPSLTVSPGGTVTLTCRSSNGAVTSSNYANWVQQKPGQAPRGLIGGTNKRAPGTPARFSGSLLEGKAALTLSGVQPEDEAVYYCALWYPNLWVFGGGTKLTVLSESATPESGPGTSPGATPESGPGTSESATPEVQLVESGGGIVQPGGSLRLSCAASGFTFSTYAMNWVRQAPGKGLEWVGRIRTKRNDYATYYADSVKGRFTISRDDSKNTLYLQMNSLKTEDTAVYYCVRHENFGNSYVSWFAHWGQGTLVTVSSGTATPESGPG",Kd,human EGFR [3],0.034 nM
same,koff,human EGFR [3],0.00023 s⁻¹
same,kon,human EGFR [3],6.45e+06 M⁻¹ s⁻¹
same,Kd,cynomolgus monkey EGFR,0.042 nM
same,koff,cynomolgus monkey EGFR,0.00017 s⁻¹
same,kon,cynomolgus monkey EGFR,4.1e+06 M⁻¹ s⁻¹
same,Kd,human CD3 [4],29.2 nM
same,koff,human CD3 [4],0.128 s⁻¹
same,kon,human CD3 [4],4.4e+06 M⁻¹ s⁻¹
same,Kd,cynomolgus monkey CD3,28 nM
same,koff,cynomolgus monkey CD3,0.14 s⁻¹
same,kon,cynomolgus monkey CD3,5e+06 M⁻¹ s⁻¹
